Source: the DeepSol protein solubility set

experiment: soluble on expression in E. coli; label from the status in PepcDB or PDB records

| Sequence | soluble on expression in E. coli |
| --- | --- |
| MDIGTQLKFLRNRRGWTMQEVADRIGKNDSTYSGYETNKRKPNAEVLVQLADIFDTTTDFILGRTENPNGLNFNVKDFLDQGRLHSDGVEITDEQAEIANVLLRQLLQRKQQ | not soluble |
| MDIISLRKSPQYLEEAIAYFQRKWADENSRMVYDNCFRTCLESESPLPQWYLLINGEGEIIGCAGLATNDFNSRMDLYPWLVALFIEEQYRGHNYGNLLIKAVEEDTRRLGFGNLYLCTTHTGYYEHFNFVYIGDCYHPWGEHTR | not soluble |
| MDILQTRYFELSNPTTGEHKFYELTLHEDGTLISRYGRIGANGQNKTQQFNSVEAMLKAADKTTAEKLNKGYQVANAGETAAQETRHQRILRNVREFYELISNGDSKLAQRCSVEFKAFIEDEDNKEEYEDQDNELINNGIREAADWELVFFVDWKDTESMLDVLDTLCSNLNIDIVFDWGCDVPEDELKVGQIMLLAHEQLQQQGFALWHWDTGHDAYLGWIARMAYQTQIASCVQALDLDAAYPNPEKLTLEHHHHHH | soluble |
| MDKALTNHVIILSFDCLSALDFPILQKLPHFQSLIKKGTVVEKVEPIYPSVTYPSHSTIVTGNYPNKHGVVSNTLLQPGRESPDWHWYRKSIKGTTLYDEARKANLTTAALLWPVTGRANIDYNLPEIFPNRPWQNQVLVSLFSGSPLYQLDLNRRFGHIRNGLSQPELDDFVLASAVHTIQTKKPNIMFVHFTDLDTQRHYHGFESNETIAAIQRHDERLGKIIQALKESDLYEESTIIALGDHSALSENKSIQLNVLFHQRGLISLNKKRKLVDWKAYCQSCDGSAYVYVKDKNDTDTIREVQLLLEELLQNKQNGIEFILHDEAAKDCGADGNCLFMLEAREGYYFTENYTGDFIKEITEKDVTLSKKYTFGTHGYSPTKPNYETIFIAAGKGIKSGVTVPYMRLIDEGPTIARLLGLHLGETDGAIVEDLLQLLEHHHHHH | soluble |
| MDKELIKKNIKLMDATIEKMIHVMSSIHKLQLSVKELEDSNELTVSYVKRECTKLEERVKELRPSISRCVFMYREYVEEFETKLRDRIVTEKFFRIKRFYGKEVLAFKEFQEKYQNYIPKDIIDIKKQVRQKLEEVGYEIDGAFEGDFTSWVGVYARPKDKPTYLDPANAEEVVLQEKYSVNGFKQDFSEWFEFEIKDNVVYGILEHHHHHH | soluble |
| MDKEQRNIVVFNASKRELFTSSSGYKSLQKKLRAQWKIQSIKEELTLEKLQGVKLWITAGPREKFTAAELEVLKQYLDSGGALLVMIGEGGELKYDTNINFLLEEFGIMVNNDAVIRNVYYKYFHPKEALVSNGVLNREISRAAGKVVTGVIDEENTGNNSQALTFVYPYGATLNVMKPAVAILSTGSVCFPLNRPVLAFHHSKNAGKLAVLGSCHMFSDQYLDKEENSRIMDVVFQWLTTDSIHLNQIDAEDPEITDYMMLPDTGSLSERLRVCLQEGDENPRDFTSLFDMSLLKLHTNTLPSVLDAYKQLNVKHEALQLITPQFETPLPPLQPAVFQPAFRDLPPPMLDLFDLDETFSSEKVRLAQLSNKCTDDDLEFYVRKCGDILGVTGNLDKDKRDAKHILEHVFFQVVEFKKLNEEHDVDTAEARFSMY | soluble |
| MDKIPDIMAKIKTMAPAIRSIDTRTVKVAPKVADAELQSAEYRQWRNAVYRRAGYRCEAIDNGRRCTKAAPAHRLFADHIVERRDGGALLDAANGQCLCGSHHTRKTVAARAARLSSRSRGGGSNLLEHHHHHH | soluble |
| MDKRISIAIDGPAAAGKSTVAKVVAKKLSYVYIDTGAMYRTITYAALEQKVDIENEEQLMEVVKNVKIEFQQGENTQLVFLNGQDVSEVIRTPEVTNRVSIVAKHRLVREEMVRRQQELAEKGGVVMDGRDIGTHVLPDAEVKIFMLASVEERAERRHLENMNKGFDSNLEQLKEEIAQRDKLDSEREVSPLKKADDALELDTTSLSIEEVVQKIMGIVLGVFAK | not soluble |
| MDKSTKDFMDLKKIGGDDERERRFSDASDTSMDCHMESIGSRRRDSLIEQFRDFLNRSMDFSVKIDDPFEKEMY | not soluble |
| MDLAKLGLKEVMPTKINLEGLVGDHAFSMEGVGEGNILEGTQEVKISVTKGAPLPFAFDIVSVAFGYGNRAYTGYPEEISDYFLQSFPEGFTYERNIRYQDGGTAIVKSDISLEDGKFIVNVDFKAKDLRRMGPVMQQDIVGMQPSYESMYTNVTSVIGECIIAFKLQTGKHFTYHMRTVYKSKKPVETMPLYHFIQHRLVKTNVDTASGYVVQHETAIAAHSTIKKIEGSLPVDHHHHHH | soluble |
| MDLKITNGFYDPSHLSYEVVERKGLGHPDTLADGIAEQIEIDYSLYCLDKFGVIPHHNFDKIIIRGGHSVQDFGGSDFIEPIKIIFLGRASKKCFNSSIPLFKIQKKAATKYLNRILPNLDVENYVEFETLTSDFTTKTNWFSPEAIEDLPEYLDVPKANDTATMISYWPLTISEELALMIEGYFYKLDKNELPTPRFTKMGGDIKVMVVRNDLEYSIRINFPLISKFFNNDIESQLYVDKHVEKIKKYIEQKYKNISFSIDYHYYLTTTGSCIDFGEEGAVGRGNKTHGIISSFRPNTMEAPAGKNCTYFVGKVWGFLSDTIAKEIYEAFNTPCQIIMQLNIGSKLYRPTHLFIQTEESVDQERVLEIVNRHLNNGKQNTNLILSTQHFIPKTNVYDG | not soluble |
| MDLKVVVSLSSRLYTDEIAKMQQRIGCILPLASTHGTQNVQGLGLGQVYSLETVPDYVSMYNYLSDCTLAVLDEVSVDSLILTKIVPGQTYAIKNKYQPFFQWHGTGSLSVMPPVFGREHATVKLESNDVDIVFPMVLPTPIAEEVLQKILLFNVYSRVVMQAPGNADMLDVHMHLGSVSYLGHHYELALPEVPGPLGLALLDNLSLYFCIMVTLLPRASMRLVRGLIRHEHHDLLNLFQEMVPDEIARIDLDDLSVADDLSRMRVMMTYLQSLASLFNLGPRLATAAYSQETLTATCWLR | not soluble |
| MDLNFKELAEAKKDAILKDLEELIAIDSSEDLENATEEYPVGKGPVDAMTKFLSFAKRDGFDTENFANYAGRVNFGAGDKRLGIIGHMDVVPAGEGWTRDPFKMEIDEEGRIYGRGSADDKGPSLTAYYGMLLLKEAGFKPKKKIDFVLGTNEETNWVGIDYYLKHEPTPDIVFSPDAEYPIINGEQGIFTLEFSFKNDDTKGDYVLDKFKAGIATNVTPQVTRATISGPDLEAVKLAYESFLADKELDGSFEINDESADIVLIGQGAHASAPQVGKNSATFLALFLDQYAFAGRDKNFLHFLAEVEHEDFYGKKLGIFHHDDLMGDLASSPSMFDYEHAGKASLLNNVRYPQGTDPDTMIKQVLDKFSGILDVTYNGFEEPHYVPGSDPMVQTLLKVYEKQTGKPGHEVVIGGGTYGRLFERGVAFGAQPENGPMVMHAANEFMMLDDLILSIAIYAEAIYELTKDEEL | soluble |
| MDLPKAYDPKSVEPKWAEKWAKNPFVANPKSGKPPFVIFMPPPNVTGSLHMGHALDNSLQDALIRYKRMRGFEAVWLPGTDHAGIATQVVVERLLLKEGKTRHDLGREKFLERVWQWKEESGGTILKQLKRLGASADWSREAFTMDEKRSRAVRYAFSRYYHEGLAYRAPRLVNWCPRCETTLSDLEVETEPTPGKLYTLRYEVEGGGFIEIATVRPETVFADQAIAVHPEDERYRHLLGKRARIPLTEVWIPILADPAVEKDFGTGALKVTPAHDPLDYEIGERHGLKPVSVINLEGRMEGERVPEALRGLDRFEARRKAVELFREAGHLVKEEDYTIALATCSRCGTPIEYAIFPQWWLRMRPLAEEVLKGLRRGDIAFVPERWKKVNMDWLENVKDWNISRQLWWGHQIPAWYCEDCQAVNVPRPERYLEDPTSCEACGSPRLKRDEDVFDTWFSSALWPLSTLGWPEETEDLKAFYPGDVLVTGYDILFLWVSRMEVSGYHFMGERPFKTVLLHGLVLDEKGQKMSKSKGNVIDPLEMVERYGADALRFALIYLATGGQDIRLDLRWLEMARNFANKLYNAARFVLLSREGFQAKEDTPTLADRFMRSRLSRGVEEITALYEALDLAQAAREVYELVWSEFCDWYLEAAKPALKAGNAHTLRTLEEVLAVLLKLLHPMMPFLTSELYQALTGKEELALEAWPEPGGRDEEAERAFEALKQAVTAVRALKAEAGLPPAQEVRVYLEGETAPVEENLEVFRFLSRADLLPERPAKALVKAMPRVTARMPLEGLLDVEEWRRRQEKRLKELLALAERSQRKLASPGFREKAPKEVVEAEEARLKENLEQAERIREALSQIG | soluble |
| MDLSTGVPVSIQLKTIVQQGNEQKDFFFDLEGQLVKMGDTLYIRYKEELLEDTEPTPVTIKIEPDGHVQLIRAGELRMRLRFGYQEKLDTSYRTPYGLLQISTFTHNLRVSLKDQPMSGKILVDYDLYSQTERIGEYHLELEFTA | not soluble |
| MDMNFDLYMNGVVEQARNEIESAGYEQLTTAEDVDKVLKQDGTTLVMINSVCGCAGGIARPAASHALHYDVLPDRLVTVFAGQDKEATQRAREYFEGYAPSSPSFALVKDGKITEMIERHQIEGHDVMNVINQLQTLFNKYCEERLEHHHHHH | soluble |
| MDNLVWDGIPDIRTLDQTIRKHAHPLNLIVCLPDNQIPDFQTAQDASDSECRLKHRLDQATQCLQFDSINLIEHILPDVRFWLVPPSRTRRLHEHFHHISWQTEAIPQTESKSDKPWFALPQTSERKKPEHVLVIGAGIAGASTAHALASHGISVTVLEARKAAQAASGNRQGLLYAKISPHDTGQTELLLAGYGYTKRLLGHILPDSDTWGGNGIIHLNYSRTEQQRNHELGLQKHHNHLYRSITSAEAEKIAGIPLNTPYAEPLCGLYWQHGVWLNPPAFVRTLLSHPLIELYENTTLTGISHDGEKWIASTPNGTFTATHIIYCTGAHSPCLPETNLAALPLRQIRGQTGLTPSTPFSEQLRCAVSGESYISPSWHGLHCYGASFIPNSSNTGWNEAEEASNRQALAHLNPALAESLFAANPNPQKHQGHAAIRCDSPDHLPVVGALGDIAAMRQTYAKLALDKNYRIDTTCPYLPNAYTNTAHGTRGLATAPICAAAVAAEILGLPHLFSQRLRHALHPNRTVIRAIVRRQNLIPLEHHHHHH | soluble |
| MDNPSKEIDLLLQSSYDMTILTKQGEYNVDSMLSRAHHVASRISSMYKYEKLLQDMQDLTVNGNRRKLILNDLQRENKQIMALQDENRQLRETTQEYLATMRNILDSHAEIEGSIEMGQMNSDIDDADIDRIIFEMANTDQEARLKKKALEMELMMDDLEKMRKEEYQELQLAVQRNKNYKELFKLACFSNQSANSILNSAMKIISEGDGFDDDEAQENEDLNETIIHKKQ | not soluble |
| MDPFGKYIKAVSARAADKEILKKAQDGGIVSAAYIYGLESGLLDGVIIADKEDGFAAAPKVATTREEILNAAGTKYTVCPNLSVVKSAVREYGCDKLGFVGTPCQVRSIRKAIKYPVGYRHVPDKIALIMGIFCMENFPYNGMKAIVEEHCGIKMDDVVKTDIGKGKFWVYSKWGDVKTIPLKDTHPYEQGSCHVCMDYTAELADISTGSVGSPDGWSTIFVRTAKGEEYLNKMVEAGALETKEIDAVKPGLGLVEKLALTKKEKNGKEVEHRKEIGLPVPYLEHHHHHH | not soluble |
| MDPKKADIIRLEALPQDLLGGIVAKVGATTAEDFHNCILVCKELGASANDKHVFKTLNLALLVKKPLSGTQTPSYYENMS | soluble |
| MDPLFLLLPYISSVGKEGKFQSVKQMVMDEDYPGCSRLLQCKQGLDSLHHVADEKEVNDQKYHKYNLEKTLEWLKKKVQRTVNALKKGNISVGGGVKSSTFVRVKHEDASEEDYLRYAHGLISEYISEDLSKDLLKHLELPEISSPKEAEPPSKKRKLSDKPVEAGEDYTKFNSADFARKPPKKMTAAQKSLAKADKTGMKSLASFFSPKVKQEKN | not soluble |
| MDPMYLLVDVGNTHSVFSITEDGKTFRRWRLSTGVFQTEDELFSHLHPLLGDAMREIKGIGVASVVPTQNTVIERFSQKYFHISPIWVKAKNGCVKWNVKNPSEVGADRVANVVAFVKEYGKNGIIIDMGTATTVDLVVNGSYEGGAILPGFFMMVHSLFRGTAKLPLVEVKPADFVVGKDTEENIRLGVVNGSVYALEGIIGRIKEVYGDLPVVLTGGQSKIVKDMIKHEIFDEDLTIKGVYHFCFGD | soluble |
